This is an account of results in patent publication US5221606A, “Reagent and kit for enzyme assay comprising a substrate consonant with given enzyme to be assayed” (King's College London, priority 1987, dated 1993).

Substrate in this data set: CCC(=O)Oc1c(OC)cc(C=C2SC(=S)N(CC(=O)O)C2=O)cc1OC
Put plainly: assay of arylesterase in serum. The format is biochemical. Conditions: other: borate buffer pH 8, 37.0 °C. On the procedure: The serum samples were diluted by a factor of 10 prior to the assay. The substrate solution and the diluted sera were then preincubated at 37° C. in a water bath. Aliquots (0.75 ml) of the substrate solution were then pipetted into small plastic tubes (2 ml capacity), and 0.05 ml samples of the sera were added to each of the substrate aliquots and shaken vigorously to ensure adequate mixing. A blank was run by substituting water (0.05 ml) for the serum. The reaction was stopped after 10 min by the addition of the stopping buffer (0.25 ml) [prepared by dissolving DABCO (22.4 g) in water (200 ml) and adjusting the pH to 10 by the addition of a little conc. hydrochloric acid. The resulting mixture was then made up to 1000 ml with acetone]. The absorption (A) was then measured at 529 nm and the enzyme activity calculated on the basis of an εmax =47,500. [formula] where t=time of incubation in hours

B1: arylesterase (Homo sapiens) (protein)
chain: MAKLIALTLLGMGLALFRNHQSSYQTRLNALREVQPVELPNCNLVKGIETGSEDLEILPNGLAFISSGLKYPGIKSFNPNSPGKILLMDLNEEDPTVLELGITGSKFDVSSFNPHGISTFTDEDNAMYLLVVNHPDAKSTVELFKFQEEEKSLLHLKTIRHKLLPNLNDIVAVGPEHFYGTNDHYFLDPYLQSWEMYLGLAWSYVVYYSPSEVRVVAEGFDFANGINISPDGKYVYIAELLAHKIHVYEKHANWTLTPLKSLDFNTLVDNISVDPETGDLWVGCHPNGMKIFFYDSENPPASEVLRIQNILTEEPKVTQVYAENGTVLQGSTVASVYKGKLLIGTVFHKALYCEL
notes: The serum samples were diluted by a factor of 10 prior to the assay; from tissue; host or cells: serum
For orientation: Km means the substrate concentration at which the rate is half of its maximum. Consider B1, for which the Km stood at 25 µM.
